Data on one compound can be found in patent US8716246B2, “Azuvirin peptides” (The Regents of the University of California, priority 2011, dated 2014).

In one series the target is T1, rhEphB4 (Homo sapiens, UniProt P54760).
T1 construct: purchased R&D Systems, Inc., Minneapolis, Minn
T1 sequence (P54760 16-987): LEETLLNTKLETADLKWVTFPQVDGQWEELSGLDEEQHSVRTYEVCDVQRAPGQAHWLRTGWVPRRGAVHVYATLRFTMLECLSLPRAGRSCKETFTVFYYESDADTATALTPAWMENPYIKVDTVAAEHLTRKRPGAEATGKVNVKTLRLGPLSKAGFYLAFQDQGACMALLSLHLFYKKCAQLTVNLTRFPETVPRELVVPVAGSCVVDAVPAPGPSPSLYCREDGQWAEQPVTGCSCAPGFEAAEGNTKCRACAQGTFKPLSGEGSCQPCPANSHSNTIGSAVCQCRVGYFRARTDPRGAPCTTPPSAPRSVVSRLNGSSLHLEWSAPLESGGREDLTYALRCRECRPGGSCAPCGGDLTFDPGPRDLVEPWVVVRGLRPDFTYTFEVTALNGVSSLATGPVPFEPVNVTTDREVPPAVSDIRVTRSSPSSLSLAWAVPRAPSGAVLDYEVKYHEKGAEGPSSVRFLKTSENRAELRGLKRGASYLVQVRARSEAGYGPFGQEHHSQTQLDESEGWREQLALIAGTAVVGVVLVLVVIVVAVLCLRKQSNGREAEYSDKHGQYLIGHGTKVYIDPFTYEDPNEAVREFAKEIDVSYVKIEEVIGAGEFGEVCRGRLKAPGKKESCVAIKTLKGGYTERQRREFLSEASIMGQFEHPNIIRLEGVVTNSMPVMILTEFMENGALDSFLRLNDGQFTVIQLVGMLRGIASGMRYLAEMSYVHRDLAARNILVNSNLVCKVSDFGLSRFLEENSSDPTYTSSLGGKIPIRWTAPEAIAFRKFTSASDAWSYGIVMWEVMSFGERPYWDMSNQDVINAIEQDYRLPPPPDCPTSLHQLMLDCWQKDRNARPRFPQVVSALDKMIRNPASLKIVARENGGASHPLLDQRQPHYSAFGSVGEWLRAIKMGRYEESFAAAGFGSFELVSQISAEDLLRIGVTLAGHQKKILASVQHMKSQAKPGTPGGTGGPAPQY
The experiment in a line: SPR binding to immobilized rhEphB4 (Biacore 3000). The protocol: (§1) Binding to selected ephrin receptors was measured by surface plasmon resonance on a Biacore3000 instrument. Commercially available ephrin receptors: EphA2, EphB2 and EphB4 (R&D Systems) were immobilized on a CM-5 chip by amine coupling and tested peptides were passed over a chip surface as analytes.
(§2) Binding studies. Binding studies were performed by surface plasmon resonance (SPR) on a BIAcore 3000 system (BiaCore AB, Piscataway, N.J.). BIAcore CM5 sensor chips were utilized in all experiments. Binding studies were performed in HBS-EP running buffer (pH=7.4) containing 10 mM HEPES, 150 mM NaCl, 3 mM EDTA, and 0.005% polysorbate 20. Commercially available ephrin receptors: EphA2, EphB2 and EphB4 (R&D Systems, Inc., Minneapolis, Minn.) were immobilized on a CM5 sensor chip using the amine coupling method. The chip was activated by mixing 400 mM N-ethyl-N-(3-dimethylaminopropyl)-carbodiimide hydrochloride and 100 mM N-hydroxysuccinimide. Residual reactive groups on the chip surface were blocked using 1.0 M ethanolamine/HCl (pH=8.5). The flow cell-1 chip, which served as a control, lacked immobilized protein but was treated with N-ethyl-N-(3-dimethylaminopropyl)-carbodiimide hydrochloride, N hydroxysuccinimide, and ethanolamine/HCl. Binding signals were corrected for nonspecific binding by subtracting the flow cell-1 signal (blank surface). To regenerate chip surfaces, bound ligands were removed with 10 mM HCl. Data were analyzed with BIAevaluation 4.1 software (Biacore, Piscataway, N.J.).
For orientation: In SPR one partner is held on a chip, and binding of the other changes the refractive index at the surface.

A short description of series [1]: MultiTox-Fluor Multiplex Cytotoxicity Assay, LLC cells. In kind it is cell-based, murine. The note with it: mouse, Lewis lung carcinoma (LLC) cells; 24 h co-culture; read-out: LD50, LLC cells. The protocol: Experiments were carried out using MultiTox-Fluor Multiplex Cytotoxicity Assay (Promega Corp., Madison, Wis.) as previously described. This assay simultaneously measures the number of live and dead cells in culture wells based on the activity of two proteases, one a marker of cell viability, and the other a marker of cytotoxicity, which yield products with different excitation and emission spectra. Briefly, for cytotoxicity experiments murine LCC (or RAW 264.7) cells were plated in a 96-well plate at a density of 1×10^4 cells/well in a total volume of 50 μl of culture media and treated with various concentrations of tested peptides (50 μl of 0-400 μM peptides in culture media). Cells' viability was assessed 24 h later by MultiTox-Fluor Multiplex Cytotoxicity Assay (incubation time 1 h). For cell viability experiments, LCC cells were plated in a 96-well plate at a density of 5×10^3 cells/well in a total volume of 50 μl of culture media and treated with various concentrations of tested peptide (50 μl of 0-200 μM peptide in culture media) for 1 hour prior to 0, 2, 4 Gy irradiation. Cell viability was assessed 72 h later by MultiTox-Fluor Multiplex Cytotoxicity Assay (incubation time 1 h). All experiments were carried out in triplicates.

The target in a further series is rhEphB2/Fc (Homo sapiens, UniProt P29323). In words: SPR binding to immobilized rhEphB2/Fc (Biacore 3000). Also noted: Fc; purchased R&D Systems, Inc., Minneapolis, Minn. The protocol: as §1, §2
A further series can be described thus: in vitro. As to conditions: for peptide concentration remaining in human serum ± SEM (AUC): 37° C. How it is done: Serum stability. Human blood serum was prepared using BD Vacutainer→Rapid Serum Tubes (RST) (BD Diagnostics, Franklin Lakes, N.J.) according to manufacturer's recommendations. Serum was harvested and either used fresh or stored at −80° C. Stability of the AzV36-NicL in the human serum was determined as previously described. Briefly, 50 μl of an aqueous peptide stock solution (10 mg/ml) was added to 1.95 ml of 25% pooled, non-heat inactivated human serum in PBS and incubated at 37° C. […] The resulting mixtures were kept at 5° C. for 10 min and then centrifuged at 300 g for 5 min. 100 μl of the supernatants were analyzed using analytical ProStar 210 HPLC system with a ProStar 325 Dual Wavelength detector set at 220 nm and 280 nm (Varian Inc., Palo Alto, Calif.). The mobile phases were: Solvent A, 0.1% TFA (trifluoroacetic acid) in water; solvent B, 0.1% TFA in acetonitrile. Experiments were performed using Vydac 218TP54 C18 column, 4.6×250 mm, 5 μM (Grace Vydac, Hesperia, Calif.) in a linear 0 to 100% gradient of solvent B applied over 100 min at 1 ml/min.

Setting [2] is: human, 25% pooled, non-heat inactivated human serum in PBS.

Molecules are shown by their SMILES. Square brackets hold non-standard residues; d marks the D form. Peptide text beside a SMILES is read from it. * marks the point of attachment. Oic = O=C(O)[C@@H]1C[C@@H]2CCCC[C@@H]2N1; Cha = N[C@@H](CC1CCCCC1)C(=O)O; Tle = CC(C)(C)[C@H](N)C(=O)O; Nicotinoyl = O=C(c1cccnc1)*; Acm = CC(=O)NC*

The term Kd denotes the equilibrium constant for the complex coming apart. Usually amount remaining stands for the share of the starting amount still present when the sample was taken. Low readings indicate a greater loss, high ones greater stability. With `CC(=O)NCSC[C@H](NC(=O)[C@H](CC1CCCCC1)NC(=O)[C@H](CC1CCCCC1)NC(=O)[C@@H](CCCCNC(=O)c1cccnc1)NC(=O)[C@@H](N)Cc1ccc(O)cc1)C(=O)N[C@H](C(=O)N[C@@H](CC1CCCCC1)C(=O)N1[C@H](C(=O)N[C@H](CCCNC(=N)N)C(=O)N[C@@H](Cc2c[nH]cn2)C(=O)N[C@@H](CCCNC(=N)N)C(=O)N[C@H](C(=O)N[C@@H](CC2CCCCC2)C(=O)N[C@@H](CSCNC(C)=O)C(=O)N[C@H](CCCCN)C(N)=O)[C@@H](C)O)C[C@@H]2CCCC[C@@H]21)C(C)(C)C` [AzV36-NicL, YkNic-Cha-Cha-Cam-Tle-Cha-Oic-rHRT-Cha-Cam-k-CONH] (H-Y[dK](Nicotinoyl)[Cha][Cha]C(Acm)[Tle][Cha][Oic][dR]HRT[Cha]C(Acm)[dK]-NH2), the Kd on rhEphB4 was found to be 5.83 ± 1.4 nM; at rhEphB2/Fc, 14.3 ± 3.3 nM. In addition, in series [1], the CC50 at 24 h came out at 17 ± 2.84 µM. Also, the “peptide concentration remaining in human serum ± SEM (AUC)” value in the series “in vitro” (24 h, 25% human serum in PBS) was determined as 100±0.64%; in the series “in vitro” (6 days), 97.8±2.86%. The compound also registered a fraction remaining at 24 h, 0.25 mg/ml in the series “in vitro” (setting [2]) of 100 ± 0.64%. Further, the fraction remaining at 144 h, 0.25 mg/ml in the series “in vitro” (setting [2]) came to 97.8 ± 2.86%.
